Source: US20220154170A1

Target: clade B MN gp41 monomer (HIV-1 clade B, strain MN) (UniProt P05877)
Experiment: endpoint ELISA, plate-coated MN gp41

Sequence of UniProt P05877 (P05877 514-856 limits assumed): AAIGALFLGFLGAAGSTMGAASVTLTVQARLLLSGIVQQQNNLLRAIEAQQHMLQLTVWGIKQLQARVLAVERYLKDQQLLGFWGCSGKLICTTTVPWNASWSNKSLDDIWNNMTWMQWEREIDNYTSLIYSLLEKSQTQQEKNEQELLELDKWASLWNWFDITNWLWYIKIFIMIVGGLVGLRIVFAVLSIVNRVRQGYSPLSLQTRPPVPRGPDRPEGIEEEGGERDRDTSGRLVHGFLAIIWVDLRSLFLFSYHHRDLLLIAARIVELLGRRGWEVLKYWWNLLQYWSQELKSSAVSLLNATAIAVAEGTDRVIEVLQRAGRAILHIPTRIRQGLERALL

Substance: 240-D (antibody)
- endpoint titer: 78.1 ng/mL
